Experimental data from patent EP3623383A1 (Deutsches Krebsforschungszentrum, Stiftung des öffentlichen …, dated 2020).

T1: FLT3 as expressed on cells (NALM16 cells, FLT3+) (human, UniProt P36888 27-993)
T1 construct: whole, on cells; Endogenous FLT3 of a human leukemia cell line; also called Nalm16 cells expressing FLT3
T1 sequence (looked up): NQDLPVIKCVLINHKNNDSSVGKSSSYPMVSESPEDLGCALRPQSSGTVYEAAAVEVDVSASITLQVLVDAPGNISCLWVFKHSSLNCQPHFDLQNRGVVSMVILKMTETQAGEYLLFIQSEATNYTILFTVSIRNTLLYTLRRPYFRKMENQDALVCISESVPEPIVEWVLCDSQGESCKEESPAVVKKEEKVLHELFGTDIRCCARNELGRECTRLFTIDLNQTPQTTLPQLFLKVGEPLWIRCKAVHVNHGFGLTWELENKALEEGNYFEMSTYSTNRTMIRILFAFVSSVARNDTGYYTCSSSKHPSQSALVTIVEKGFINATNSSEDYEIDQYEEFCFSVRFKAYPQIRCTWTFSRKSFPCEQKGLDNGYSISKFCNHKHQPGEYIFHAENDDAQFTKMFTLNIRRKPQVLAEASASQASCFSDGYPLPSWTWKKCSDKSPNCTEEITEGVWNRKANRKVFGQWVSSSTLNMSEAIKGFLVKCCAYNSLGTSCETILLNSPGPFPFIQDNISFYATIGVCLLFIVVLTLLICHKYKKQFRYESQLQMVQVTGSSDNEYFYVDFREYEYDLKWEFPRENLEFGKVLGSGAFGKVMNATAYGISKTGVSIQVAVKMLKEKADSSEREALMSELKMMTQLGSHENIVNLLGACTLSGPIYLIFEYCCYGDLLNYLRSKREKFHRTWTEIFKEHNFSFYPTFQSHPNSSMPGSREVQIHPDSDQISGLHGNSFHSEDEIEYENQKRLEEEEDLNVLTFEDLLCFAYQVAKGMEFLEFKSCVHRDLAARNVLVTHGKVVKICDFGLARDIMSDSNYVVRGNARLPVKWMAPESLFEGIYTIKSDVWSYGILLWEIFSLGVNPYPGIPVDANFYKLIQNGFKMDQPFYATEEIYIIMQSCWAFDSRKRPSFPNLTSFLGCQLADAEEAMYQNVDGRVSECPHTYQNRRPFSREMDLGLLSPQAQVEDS


Target: T1, FLT3 as expressed on cells (NALM16 …)
Assay: flow cytometry on FLT3+ NALM16 cells; value told of the FLT3 binding part shared by V6 to V9

Binder | EC50 [nM]
V6-V7 (CC-2 variant, parental 4G8 FLT3 domain with UCHT1 CD3 scFv variant V7) (bispecific antibody, human IgG1, kappa, IgGsc format, Fc-attenuated) heavy: QVQLQQPGAELVKPGASLKLSCKSSGYTFTSYWMHWVRQRPGHGLEWIGEIDPSDSYKDYNQKFKDKATLTVDRSSNTAYMHLSSLTSDDSAVYYCARAITTTPFDFWGQGTTLTVSSASTKGPSVFPLAPSSKSTSGGTAALGCLVKDYFPEPVTVSWNSGALTSGVHTFPAVLQSSGLYSLSSVVTVPSSSLGTQTYICNVNHKPSNTKVDKKVEPKSCDKTHTCPPCPAPPVAGPSVFLFPPKPKDTLMISRTPEVTCVVVGVSHEDPEVKFNWYVDGVEVHNAKTKPREEQYNSTYRVVSVLTVLHQDWLNGKEYKCKVSNKQLPSPIEKTISKAKGQPREPQVYTLPPSRDELTKNQVSLTCLVKGFYPSDIAVEWESNGQPENNYKTTPPVLDSDGSFFLYSKLTVDKSRWQQGNVFSCSVMHEALHNHYTQKSLSLSPGKSGDIQMTQSPSSLSASVGDRVTITCRASQDIRNYLNWYQQKPGKAPKLLIYYTSRLESGVPSRFSGSGSGTDYTLTISSLQPEDFATYYCQQGNTLPWTFGQGTKVEIKGGGGSGGGGSGGGGSEVQLVESGGGLVQPGGSLRLSCAASGYSFTGYTMNWVRQAPGKGLEWVALINPYKGVSTYADSFKGRFTISVDDSKNTAYLQMNSLRAEDTAVYYCARSGYYGDSDWYFDVWGQGTLVTVSS light: DIVLTQSPATLSVTPGDSVSLSCRASQSISNNLHWYQQKSHESPRLLIKYASQSISGIPSRFSGSGSGTDFTLSINSVETEDFGVYFCQQSNTWPYTFGGGTKLEIKRTVAAPSVFIFPPSDEQLKSGTASVVCLLNNFYPREAKVQWKVDNALQSGNSQESVTEQDSKDSTYSLSSTLTLSKADYEKHKVYACEVTHQGLSSPVTKSFNRGEC | ~1
V6-V9 (CC-2 variant, parental 4G8 FLT3 domain with UCHT1 CD3 scFv variant V9) (bispecific antibody, human IgG1, kappa, IgGsc format, Fc-attenuated) heavy: QVQLQQPGAELVKPGASLKLSCKSSGYTFTSYWMHWVRQRPGHGLEWIGEIDPSDSYKDYNQKFKDKATLTVDRSSNTAYMHLSSLTSDDSAVYYCARAITTTPFDFWGQGTTLTVSSASTKGPSVFPLAPSSKSTSGGTAALGCLVKDYFPEPVTVSWNSGALTSGVHTFPAVLQSSGLYSLSSVVTVPSSSLGTQTYICNVNHKPSNTKVDKKVEPKSCDKTHTCPPCPAPPVAGPSVFLFPPKPKDTLMISRTPEVTCVVVGVSHEDPEVKFNWYVDGVEVHNAKTKPREEQYNSTYRVVSVLTVLHQDWLNGKEYKCKVSNKQLPSPIEKTISKAKGQPREPQVYTLPPSRDELTKNQVSLTCLVKGFYPSDIAVEWESNGQPENNYKTTPPVLDSDGSFFLYSKLTVDKSRWQQGNVFSCSVMHEALHNHYTQKSLSLSPGKSGEVQLVESGGGLVQPGGSLRLSCAASGYSFTGYTMNWVRQAPGKGLEWVALINPYKGVSTYNQKFKDRFTISVDKSKNTAYLQMNSLRAEDTAVYYCARSGYYGDSDWYFDVWGQGTLVTVSSGGGGSGGGGSGGGGSDIQMTQSPSSLSASVGDRVTITCRASQDIRNYLNWYQQKPGKAPKLLIYYTSRLESGVPSRFSGSGSGTDYTLTISSLQPEDFATYYCQQGNTLPWTFGQGTKVEIK light: DIVLTQSPATLSVTPGDSVSLSCRASQSISNNLHWYQQKSHESPRLLIKYASQSISGIPSRFSGSGSGTDFTLSINSVETEDFGVYFCQQSNTWPYTFGGGTKLEIKRTVAAPSVFIFPPSDEQLKSGTASVVCLLNNFYPREAKVQWKVDNALQSGNSQESVTEQDSKDSTYSLSSTLTLSKADYEKHKVYACEVTHQGLSSPVTKSFNRGEC | ~1
